In article PMC2952587, “Identification of the Essential Brucella melitensis Porin Omp2b as a Suppressor of Bax-Induced Cell Death in Yeast in a Genome-Wide Screening” (PLoS ONE, 2010):

Target: the molecule itself
Test: semi-denaturing gel with Western blot

B1: Brucella melitensis porin Omp2b (natural protein)
chain: ADAIVAPEPEAVEYVRVCDAYGAGYFYIPGTEICLRVHGYVRYDVKGGDDVYSGTDRNGWDKGARFALRVSTGSETELGTLKTFTELRFNYAANNSGVDGKYGNETSSGTVMEFAYIQLGGLRVGIDESEFHTFTGYLGDVINDDVISAGSYRTGKISYTFTGGNGFSAVIALEQGGDNDGGYTGTTNYHIDGYMPDVVGGLKYAGGWGSIAGVVAYDSVIEEWAAKVRGDVNITDQFSVWLQGAYSSAATPDQNYGQWGGDWAVWGGLKYQATQKAAFNLQAAHDDWGKTAVTANVAYELVPGFTVTPEVSYTKFGGEWKNTVAEDNAWGGIVRFQRSF
notes: also called BMEI1305
  stoichiometry N: 3
